# The supplement of paper PMC10899765
# Experiments:
# Details in all cases: 20 nM; 72 h
# [1] = system: MCF10A; test: percent viability (nuclei count relative to siNT); higher = more viable cells
# Description: (§1)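 After 72 h, cells were fixed and stained with Hoechst and anti-fibrillarin, and nucleoli per nucleus were counted with CellProfiler. Values are plate-adjusted percent effect for the one-nucleolus and 5+ nucleoli phenotypes, normalised to siNT (0%) and to the positive controls siNOL11 or siKIF11 (100%), as the mean of biological triplicates. Percent viability is the nuclei count relative to siNT.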
# [2] = system: MCF10A; test: 5+ nucleoli phenotype percent effect (relative to siNT 0% and siKIF11 100%); higher = more cells with five or more nucleoli
# Description: as §1
# [3] = system: MCF10A; test: one-nucleolus phenotype percent effect (relative to siNT 0% and siNOL11 100%); higher = more cells with one nucleolus (ribosome biogenesis inhibition)
# Description: as §1
Sequence,percent viability [1],5+ nucleoli phenotype percent effect [2],one-nucleolus phenotype percent effect [3]
GCAGCAGAGAAUAGGACUACGUC [hsa-miR-922],108%,9.43%,-15%
UGAGGUAGUAGAUUGUAUAGUU [hsa-let-7f-5p],123%,25.3%,-20.6%
CAAAGUCCUUCCUAUUUUUCCC [hsa-miR-6507-3p],104%,-15.5%,-3.22%
UGAGAACUGAAUUCCAUGGGUU [hsa-miR-146a-5p],51.1%,-31.6%,9.23%
CAAAACUGGCAAUUACUUUUGC [hsa-miR-548a-3p],77.4%,45.7%,-17.2%
UACUAACUGCAGAUUCAAGUGA [hsa-miR-4637],140%,24.1%,-24.1%
UCAGCAUUCAUUGGCACCAGAGA [hsa-miR-7157-5p],30.6%,-18.8%,13.5%
CAGCCCUCCUCCCGCACCCAAA [hsa-miR-4687-5p],80.6%,-6.45%,-10.4%
UGUGACUUUAAGGGAAAUGGCG [hsa-miR-3164],22.9%,22%,19.5%
GUCCCUCUCCAAAUGUGUCUUG [hsa-miR-642a-5p],120%,55.6%,-27.9%
CAGGCAGUGACUGUUCAGACGUC [hsa-miR-2682-5p],12.3%,-23.5%,51.4%
UCAGGUGUGGAAACUGAGGCAG [hsa-miR-3934-5p],42.8%,-10.9%,10.5%
ACCUGCCAGCACCUCCCUGCAG [hsa-miR-4722-3p],53.9%,-32.2%,10.5%
GAGUGCCUUCUUUUGGAGCGUU [hsa-miR-515-3p],50.3%,9.82%,-6.31%
AGGCAGCGGGGUGUAGUGGAUA [hsa-miR-885-3p],19.2%,-36.7%,61.2%
UCUGGUAAGAGAUUUGGGCAUA [hsa-miR-4490],54.4%,46.4%,-25.9%
CAGGGCUCAGGGAUUGGAUGGAGG [hsa-miR-5088-5p],86.9%,15.2%,-17.9%
CAGAGAAUUGUUUAAUC [hsa-miR-3123],124%,54.9%,-40.8%
AAACUACUGAAAAUCAAAGAU [hsa-miR-606],133%,18.1%,-12.6%
UGCCCCAACAAGGAAGGACAAG [hsa-miR-5699-5p],43.1%,43.5%,-18.9%
UGCAAGACGGAUACUGUCAUCU [hsa-miR-4696],92.5%,-15.7%,-7.62%
UGGGGGCUGGGAUGGGCCAUGGU [hsa-miR-6848-5p],22.5%,-4.7%,7.99%
GUGACUGAUACCUUGGAGGCAU [hsa-miR-4439],56.4%,-27.6%,-2.03%
AGGCUGGAGUGAGCGGAG [hsa-miR-4430],12.7%,-22%,57.5%
UGCGCCUCGGGUGAGCAUG [hsa-miR-668-5p],43.2%,37.3%,-14.2%
UUCCUAUGCAUAUACUUCUUUG [hsa-miR-202-5p],72.7%,12.8%,-12.4%
CUCCCACUUCCAGAUCUUUCU [hsa-miR-3156-3p],34.1%,12%,-4.85%
UUGGCCACCACACCUACCCCUU [hsa-miR-4701-5p],35.9%,19.1%,1.71%
UAGGCAGUGUCAUUAGCUGAUUG [hsa-miR-34b-5p],17.6%,-23.8%,35.6%
